Test results as given in article PMC3988878, “Ultrastructural characterisation of Bacillus subtilis TatA complexes suggests they are too small to form homooligomeric translocation pores” (Biochimica et Biophysica Acta, 2013).

Biological target: the molecule itself
Assay: SEC; Superdex 200 HR 10/30, calibrated; 240 μl of concentrated Talon eluate; 20 mM Trizma, 150 mM NaCl, 0.02% DDM; 0.5 ml/min; fractions immunoblotted for the His-tag

B1: B. subtilis TatAd with a C-terminal His-tag (natural protein, UniProt O31467 1-70, looked up)
chain: MFSNIGIPGLILIFVIALIIFGPSKLPEIGRAAGRTLLEFKSATKSLVSGDEKEEKSAELTAVKQDKNAG
notes: TatAd, Bacillus subtilis, product of the tatAd-his gene in pBAD24 (pBAd-His); also called TatAd-His; TatAd complex; not shown: His6, C-terminal, kept
- binding result: binds
